Measurements from patent US20250179176A1, “ANTI-TIGIT ANTIBODIES AND USES OF THE SAME” (ARCUS BIOSCIENCES, INC., priority 2022, published 2025).

Legend:
Human TIGIT (human) = Human TIGIT (human) (UniProt Q495A1); assay: flow cytometry receptor occupancy on patients' whole blood, competitive anti-TIGIT antibody MBSA43 as detector, Q2W dosing
human FcγR3A (human) = human FcγR3A (human) (UniProt P08637); assay: ELISA, FcγR3A coated on plate, anti-human IgG HRP, chemiluminescence
Sequence of human FcγR3A (human) (P08637 17-208 limits assumed): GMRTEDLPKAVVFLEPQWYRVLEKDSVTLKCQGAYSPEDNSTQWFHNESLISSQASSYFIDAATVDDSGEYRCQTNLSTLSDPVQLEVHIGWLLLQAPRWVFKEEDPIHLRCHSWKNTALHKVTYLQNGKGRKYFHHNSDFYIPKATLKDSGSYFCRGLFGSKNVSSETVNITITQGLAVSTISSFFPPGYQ

Sequence of Human TIGIT (human) (Q495A1 other isoform, or with tags, fused parts or gaps): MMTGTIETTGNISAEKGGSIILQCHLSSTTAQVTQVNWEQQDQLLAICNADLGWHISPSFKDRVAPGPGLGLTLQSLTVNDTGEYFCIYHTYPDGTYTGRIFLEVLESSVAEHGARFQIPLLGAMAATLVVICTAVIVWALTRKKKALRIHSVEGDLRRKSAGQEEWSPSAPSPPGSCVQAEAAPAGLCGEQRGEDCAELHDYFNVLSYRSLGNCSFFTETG

Substance: domvanalimab (antibody)
- receptor occupancy (RO) (Human TIGIT (human)): > 98%
- percent of the binding of human IgG1 to the same receptor (human FcγR3A (human)): 20%
